This note sets out measurements from US20250361288A1 (Gilead, published 2025).

Where two headings read alike, the source gives them in different places.

The labels stand for the following.
B2: human HVEM extracellular domain fused with an Fc fragment at the C-terminus (Fc fusion, UniProt Q92956 39-202, looked up)
chain: LPSCKEDEYPVGSECCPKCSPGYRVKEACGELTGTVCEPCPPGTYIAHLNGLSKCLQCQMCDPAMGLRASRNCSRTENAVCGCSPGHFCIVQDGDHCAACRAYATSSPGQRVQKGGTESQDTLCQNCPPGTFSPNGTLEECQHQTKCSWLVTKAGAGTSSSHWV
notes: extracellular domain; Bought; also called hHVEM; not shown: Fc fragment at the C-terminus

For assay [1], the target named is T1, human LTβR extracellular domain fused with an Fc fragment at the C-terminus (human, UniProt P36941 31-227).
T1 construct: extracellular domain; Bought; also called hLTβR; not shown: Fc fragment at the C-terminus
The assay is described as follows: ELISA on coated target-Fc. The essentials: (§1)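 Plates coated with target protein at 1 μg/ml, blocked with 2% BSA-PBS; His-tagged LIGHT muteins added in serial dilution from 200 ng/ml, 1 h. Bound mutein detected with anti-His antibody plus HRP secondary, TMB read-out at 450 nm; EC50 from dose-response curves.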
On the technique in general: An ELISA detects its analyte on a solid surface through an enzyme-linked reagent.

Assay [2] concerns the target T2, mouse LTβR extracellular domain fused with an Fc fragment at the C-terminus (mouse, UniProt P50284 31-223).
T2 construct: extracellular domain; Bought; also called mLTβR; not shown: Fc fragment at the C-terminus
Description: ELISA on coated target-Fc. The essentials:
as §1

Assay [3] concerns the target T3, mouse HVEM extracellular domain fused with an Fc fragment at the C-terminus (mouse, UniProt Q80WM9 39-206, limits assumed).
T3 construct: extracellular domain; Bought; also called mHVEM; not shown: Fc fragment at the C-terminus
T3 sequence (looked up): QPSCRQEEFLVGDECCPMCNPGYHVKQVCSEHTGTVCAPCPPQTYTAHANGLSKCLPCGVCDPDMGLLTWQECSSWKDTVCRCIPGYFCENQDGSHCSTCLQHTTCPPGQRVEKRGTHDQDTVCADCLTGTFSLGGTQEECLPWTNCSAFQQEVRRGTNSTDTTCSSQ
The assay is described as follows: phage ELISA. The essentials: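 Supernatants from fourth-round clones rescued with helper phage were applied to plates coated with 1 μg/ml target for 1 h at room temperature. Bound phage detected with HRP anti-M13 and TMB at OD450; clones were called positive when the target/BSA ratio was >3.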

The target in assay [4] is T1, human LTβR extracellular domain fused …. The assay is described as follows: ELISA on coated target-Fc. The protocol: (§2) Nunc MaxiSorp 96-well plates (Thermofisher) were coated with target proteins (1 μg/ml), and then blocked with 2% BSA-PBS buffer for one hour. Serial dilutions of the LIGHT muteins were added with a maximum concentration of 200 ng/ml. The plates were incubated for one hour, washed four times with PBST, and then incubated with mouse anti-His tag antibody (#105327, Sino Biological) for 1 hour. The plates were further incubated with HRP-conjugated goat anti-mouse secondary antibody (#SSA006, Sino Biological) before being washed three times with PBST and treated with TMB substrate (#34029, ThermoFisher). The plates were read at 450 nm on a SpectraMax M5 microplate reader (Molecule Devices). The ELISA results were analyzed using GraphPad Prism 9.0 software and the EC50s (half maximal effective concentration) were summarized in Table 5-1 and Table 5-2.
The source holds these as a separate data set.

The target in assay [5] is T2, mouse LTβR extracellular domain fused …. The assay is described as follows: ELISA on coated target-Fc. The protocol:
as §2
This is another data set of the same source.

Assay [6] has as its target B2. The assay is described as follows: ELISA on coated target-Fc, Table 5-1. The protocol:
as §2

Another assay deals with T4, LIGHT (74-240) (human, UniProt O43557 74-240).
T4 construct: Soluble protein carries an N-terminal His tag; also called wild-type human LIGHT; LIGHT (74-240) (wt)
Description: ELISA on coated target-Fc. The essentials: as §1

T1 sequence (P36941 31-227): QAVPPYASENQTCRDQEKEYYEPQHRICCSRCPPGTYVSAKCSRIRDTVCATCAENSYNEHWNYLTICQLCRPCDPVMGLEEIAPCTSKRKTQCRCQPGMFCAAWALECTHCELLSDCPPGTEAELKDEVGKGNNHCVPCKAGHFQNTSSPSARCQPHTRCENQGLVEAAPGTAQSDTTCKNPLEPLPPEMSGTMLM
T2 sequence (P50284 31-223): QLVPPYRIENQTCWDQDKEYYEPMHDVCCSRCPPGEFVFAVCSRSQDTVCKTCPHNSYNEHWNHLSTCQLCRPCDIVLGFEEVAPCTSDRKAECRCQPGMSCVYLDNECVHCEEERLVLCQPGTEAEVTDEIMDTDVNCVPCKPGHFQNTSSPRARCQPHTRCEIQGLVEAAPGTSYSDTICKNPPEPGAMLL

B1: LIGHT-1 (ligand)
chain: DGPAGSWEQLIQERRSHEVNPAAHLTGANSSLTGSGGPLLWETQLGLAFLRGLSYHDGALVVTKAGYYYIYSKVQLGGMGCPLGLASTITHGLYKRTPRYPEELELLVSQQSPCGRATSSSRVWQDSSFLGGVVHLEAGEKVVVRVLDERLVRLLDGTRSYFGAFMV
notes: Printed mutations: V152M, W198Q, R228L; Soluble protein carries an N-terminal His tag
Take B1: the EC50 in assay [1] is 0.0493 µg/mL; in assay [2], 0.0605 µg/mL; in assay [4] it was 0.262 nM; in assay [5], 0.8 nM. Also, the binding result in assay [3] and in assay [6] was “no binding” in each case.
Take B2: the binding result in the assay with LIGHT (74-240) is listed as “binds”.

B3: LIGHT-2 (ligand)
chain: DGPAGSWEQLIQERRSHEVNPAAHLTGANSSLTGSGGPLLWETQLGLAFLRGLSYHDGALVVTKAGYYYIYSKVQLGGVGCPLGLASTITHGLYKRTPRYPEELELLVSQQSPCGSATSSSRVWQDSSFLGGVVHLEAGEKVVVRVLDERLVRLLDGTRSYFGAFMV
notes: Printed mutations: R189S, W198Q, R228L; Soluble protein carries an N-terminal His tag
B3: the figures for the EC50 in assay [1], in assay [4] and in assay [5] were 0.0762 µg/mL, 0.328 nM and 2.06 nM, respectively. For the same molecule, the binding result in assay [3] and in assay [6] was “no binding” throughout.

As usually defined, the EC50 is the concentration needed to bring the measured effect to its halfway point.
